Paper PMC11079029, “Intramolecular autoinhibition regulates the selectivity of PRPF40A tandem WW domains for proline-rich motifs” (Nature Communications, 2024)

B1: SF3A2 (protein, UniProt Q15428 1-464, looked up)
Splicing factor 3A subunit 2: MDFQHRPGGKTGSGGVASSSESNRDRRERLRQLALETIDINKDPYFMKNHLGSYECKLCLTLHNNEGSYLAHTQGKKHQTNLARRAAKEAKEAPAQPAPEKVKVEVKKFVKIGRPGYKVTKQRDSEMGQQSLLFQIDYPEIAEGIMPRHRFMSAYEQRIEPPDRRWQYLLMAAEPYETIAFKVPSREIDKAEGKFWTHWNRETKQFFLQFHFKMEKPPAPPSLPAGPPGVKRPPPPLMNGLPPRPPLPESLPPPPPGGLPLPPMPPTGPAPSGPPGPPQLPPPAPGVHPPAPVVHPPASGVHPPAPGVHPPAPGVHPPAPGVHPPTSGVHPPAPGVHPPAPGVHPPAPGVHPPAPGVHPPAPGVHPPPSAGVHPQAPGVHPAAPAVHPQAPGVHPPAPGMHPQAPGVHPQPPGVHPSAPGVHPQPPGVHPSNPGVHPPTPMPPMLRPPLPSEGPGNIPPPPPTN
B2: MTREX (protein, UniProt P42285 2-1042, looked up)
Exosome RNA helicase MTR4: ADAFGDELFSVFEGDSTTAAGTKKDKEKDKGKWKGPPGSADKAGKRFDGKLQSESTNNGKNKRDVDFEGTDEPIFGKKPRIEESITEDLSLADLMPRVKVQSVETVEGCTHEVALPAEEDYLPLKPRVGKAAKEYPFILDAFQREAIQCVDNNQSVLVSAHTSAGKTVCAEYAIALALREKQRVIFTSPIKALSNQKYREMYEEFQDVGLMTGDVTINPTASCLVMTTEILRSMLYRGSEVMREVAWVIFDEIHYMRDSERGVVWEETIILLPDNVHYVFLSATIPNARQFAEWICHLHKQPCHVIYTDYRPTPLQHYIFPAGGDGLHLVVDENGDFREDNFNTAMQVLRDAGDLAKGDQKGRKGGTKGPSNVFKIVKMIMERNFQPVIIFSFSKKDCEAYALQMTKLDFNTDEEKKMVEEVFSNAIDCLSDEDKKLPQVEHVLPLLKRGIGIHHGGLLPILKETIEILFSEGLIKALFATETFAMGINMPARTVLFTNARKFDGKDFRWISSGEYIQMSGRAGRRGMDDRGIVILMVDEKMSPTIGKQLLKGSADPLNSAFHLTYNMVLNLLRVEEINPEYMLEKSFYQFQHYRAIPGVVEKVKNSEEQYNKIVIPNEESVVIYYKIRQQLAKLGKEIEEYIHKPKYCLPFLQPGRLVKVKNEGDDFGWGVVVNFSKKSNVKPNSGELDPLYVVEVLLRCSKESLKNSATEAAKPAKPDEKGEMQVVPVLVHLLSAISSVRLYIPKDLRPVDNRQSVLKSIQEVQKRFPDGIPLLDPIDDMGIQDQGLKKVIQKVEAFEHRMYSHPLHNDPNLETVYTLCEKKAQIAIDIKSAKRELKKARTVLQMDELKCRKRVLRRLGFATSSDVIEMKGRVACEISSADELLLTEMMFNGLFNDLSAEQATALLSCFVFQENSSEMPKLTEQLAGPLRQMQECAKRIAKVSAEAKLEIDEETYLSSFKPHLMDVVYTWATGATFAHICKMTDVFEGSIIRCMRRLEELLRQMCQAAKAIGNTELENKFAEGITKIKRDIVFAASLYL
B3: SF3A1 (protein, UniProt Q15459 2-793, looked up)
Splicing factor 3A subunit 1: PAGPVQAVPPPPPVPTEPKQPTEEEASSKEDSAPSKPVVGIIYPPPEVRNIVDKTASFVARNGPEFEARIRQNEINNPKFNFLNPNDPYHAYYRHKVSEFKEGKAQEPSAAIPKVMQQQQQTTQQQLPQKVQAQVIQETIVPKEPPPEFEFIADPPSISAFDLDVVKLTAQFVARNGRQFLTQLMQKEQRNYQFDFLRPQHSLFNYFTKLVEQYTKILIPPKGLFSKLKKEAENPREVLDQVCYRVEWAKFQERERKKEEEEKEKERVAYAQIDWHDFVVVETVDFQPNEQGNFPPPTTPEELGARILIQERYEKFGESEEVEMEVESDEEDDKQEKAEEPPSQLDQDTQVQDMDEGSDDEEEGQKVPPPPETPMPPPLPPTPDQVIVRKDYDPKASKPLPPAPAPDEYLVSPITGEKIPASKMQEHMRIGLLDPRWLEQRDRSIREKQSDDEVYAPGLDIESSLKQLAERRTDIFGVEETAIGKKIGEEEIQKPEEKVTWDGHSGSMARTQQAAQANITLQEQIEAIHKAKGLVPEDDTKEKIGPSKPNEIPQQPPPPSSATNIPSSAPPITSVPRPPTMPPPVRTTVVSAVPVMPRPPMASVVRLPPGSVIAPMPPIIHAPRINVVPMPPSAPPIMAPRPPPMIVPTAFVPAPPVAPVPAPAPMPPVHPPPPMEDEPTSKKLKTEDSLMPEEEFLRRNKGPVSIKVQVPNMQDKTEWKLNGQVLVFTLPLTDQVSVIKVKIHEATGMPAGKQKLQYEGIFIKDSNSLAYYNMANGAVIHLALKERGGRKK
B4: SF3A3 (protein, UniProt Q12874 1-501, looked up)
Splicing factor 3A subunit 3: METILEQQRRYHEEKERLMDVMAKEMLTKKSTLRDQINSDHRTRAMQDRYMEVSGNLRDLYDDKDGLRKEELNAISGPNEFAEFYNRLKQIKEFHRKHPNEICVPMSVEFEELLKARENPSEEAQNLVEFTDEEGYGRYLDLHDCYLKYINLKASEKLDYITYLSIFDQLFDIPKERKNAEYKRYLEMLLEYLQDYTDRVKPLQDQNELFGKIQAEFEKKWENGTFPGWPKETSSALTHAGAHLDLSAFSSWEELASLGLDRLKSALLALGLKCGGTLEERAQRLFSTKGKSLESLDTSLFAKNPKSKGTKRDTERNKDIAFLEAQIYEYVEILGEQRHLTHENVQRKQARTGEEREEEEEEQISESESEDEENEIIYNPKNLPLGWDGKPIPYWLYKLHGLNINYNCEICGNYTYRGPKAFQRHFAEWRHAHGMRCLGIPNTAHFANVTQIEDAVSLWAKLKLQKASERWQPDTEEEYEDSSGNVVNKKTYEDLKRQGLL
B5: DIAPH2 (protein, UniProt O60879 1-1101, looked up)
Protein diaphanous homolog 2: MEQPGAAASGAGGGSEEPGGGRSNKRSAGNRAANEEETKNKPKLNIQIKTLADDVRDRITSFRKSTVKKEKPLIQHPIDSQVAMSEFPAAQPLYDERSLNLSEKEVLDLFEKMMEDMNLNEEKKAPLRNKDFTTKREMVVQYISATAKSGGLKNSKHECTLSSQEYVHELRSGISDEKLLNCLESLRVSLTSNPVSWVNNFGHEGLGLLLDELEKLLDKKQQENIDKKNQYKLIQCLKAFMNNKFGLQRILGDERSLLLLARAIDPKQPNMMTEIVKILSAICIVGEENILDKLLGAITTAAERNNRERFSPIVEGLENQEALQLQVACMQFINALVTSPYELDFRIHLRNEFLRSGLKTMLPDLKEKENDELDIQLKVFDENKEDDLTELSHRLNDIRAEMDDMNEVYHLLYNMLKDTAAENYFLSILQHFLLIRNDYYIRPQYYKIIEECVSQIVLHCSGMDPDFKYRQRLDIDLTHLIDSCVNKAKVEESEQKAAEFSKKFDEEFTARQEAQAELQKRDEKIKELEAEIQQLRTQAQVLSSSSGIPGPPAAPPLPGVGPPPPPPAPPLPGGAPLPPPPPPLPGMMGIPPPPPPPLLFGGPPPPPPLGGVPPPPGISLNLPYGMKQKKMYKPEVSMKRINWSKIEPTELSENCFWLRVKEDKFENPDLFAKLALNFATQIKVQKNAEALEEKKTGPTKKKVKELRILDPKTAQNLSIFLGSYRMPYEDIRNVILEVNEDMLSEALIQNLVKHLPEQKILNELAELKNEYDDLCEPEQFGVVMSSVKMLQPRLSSILFKLTFEEHINNIKPSIIAVTLACEELKKSESFNRLLELVLLVGNYMNSGSRNAQSLGFKINFLCKIRDTKSADQKTTLLHFIADICEEKYRDILKFPEELEHVESASKVSAQILKSNLASMEQQIVHLERDIKKFPQAENQHDKFVEKMTSFTKTAREQYEKLSTMHNNMMKLYENLGEYFIFDSKTVSIEEFFGDLNNFRTLFLEAVRENNKRREMEEKTRRAKLAKEKAEQEKLERQKKKKQLIDINKEGDETGVMDNLLEALQSGAAFRDRRKRIPRNPDNRRVPLERSRSRHNGAISSK

Test system: GFP-tagged PRPF40A-Nter-MUT
Assay: SILAC GFP-immunoprecipitation with quantitative mass spectrometry, mutant construct
Type: binding, human (Hela cells)
Conditions: quantitative MS, Hela cells, protein by gene name
Protocol: The PRPF40A N-terminal region (isoform 2, residues 1-221) was PCR-amplified from RPE1 cDNA (ATCC, Cat# CRL-4000) cDNA. The sequence was amplified in two fragments and both fragments were combined by overhang. All PCRs were carried out using Q5 Polymerase (NEB) according to manufacturer’s protocol. The resulting PRPF40A N-terminal region was cloned into a GFP-expressing pcDNA5 vector (see pcDNA5 GFP vector in ref. [28]) using Q5 Site-Directed Mutagenesis Kit (NEB). Nter-MUT, containing the PPVP/PALPP motifs changed to AAAA/AAAAA, was obtained by mutating the N-ter-WW12-containing plasmid with Q5 site-directed mutagenesis. Plasmids were transformed into DH5alpha chemically competent cells. After culturing, DNA isolation was performed with either ZymoPURE Plasmid Miniprep Kit (Zymo Research) or QIAGEN Plasmid Plus Midi Kit (Qiagen). The sequence was confirmed by Sanger Sequencing (GATC Eurofins). All used oligonucleotides are shown in Supplementary Table 6.
Hela cells (ATCC, Cat# CCL-2, RRID:CVCL_0030) were cultured in DMEM SILAC medium (Thermo Fisher) supplemented with 10% filtered FBS (Sigma-Aldrich) and 1% penicillin-streptomycin (Thermo-Fisher). The SILAC medium contains either light (Arg0, Lys0), medium (Arg6, Lys4) or heavy (Arg10, Lys8) isotopes (Cambridge Isotopes Laboratories). Hela cells were cultivated for 14 days in SILAC medium to assure sufficient isotope incorporation. For transfection, 7 × 10^6 Hela cells were seeded in a 15 cm culture dish in 20 ml of respective SILAC medium and grown for 24 h. The cells were then transfected with 20 µg of plasmids expressing either GFP (Control), GFP-tagged N-ext-WW12 or GFP-tagged-N-ext-WW12-MUT utilizing 64 µl FuGENE (Promega) (ratio 1:3.2), according to manufacturer’s protocol.
24 h post-transfection, cells were washed twice in ice-cold PBS and harvested in 1 ml mRIPA buffer (50 mM Tris, 150 mM NaCl, 1 mM EDTA, 1% NP-40, 0.1% Na-deoxycholate), supplemented with 2 µl Turbo-DNase (Thermo Fisher) and 3 µl protease-inhibitor cocktail cOmplete (Sigma-Aldrich). Cell lysates were cleared by centrifugation at 16,000 × g, 4 °C, 15 min and concentration was measured using Pierce BCA Protein Assay kit (Thermo Scientific). The expressed constructs were pulled down by incubating 2.5 mg of lysate with 20 μl GFP-nanobody agarose beads (ChromoTek, GTA-20) for 1 h at 4 °C under constant agitation. Subsequently, beads were washed three times with mRIPA buffer without supplements, then eluted in 1X NuPAGE LDS sample buffer (Thermo Scientific). To detach the proteins from the beads, the eluate was heated to 70 °C for 10 min To evaluate the success of the immunoprecipitation, input (1%) and IP samples were analyzed on a NuPAGE 4–12% Bis-Tris-Acrylamide gel (Thermo Fisher) using NuPAGE MOPS SDS running buffer (Thermo Fisher). Proteins were stained using Sypro Ruby protein gel stain (Thermo Fisher) according to manufacturer’s protocol.
The eluted proteins of three SILAC states (light, medium, heavy) were combined. The proteins were then reduced in DTT, alkylated in iodoacetamide, and purified using the SP3 paramagnetic bead approach. This was followed by overnight enzymatic digestion using trypsin (1 µg per sample) in 50 mM ammonium bicarbonate at 37 °C. The peptide solution was then purified by solid phase extraction in C18 StageTips[99].
Peptides were separated by online reverse phase liquid chromatography using the EASY-nLC 1000 system (Thermo Scientific) in a 30-cm analytical column (inner diameter: 75 μm; heated at 50 °C) packed in-house with ReproSil-Pur 120 C18-AQ 1.9-μm beads (Dr. Maisch GmbH). The gradient separation was performed through a 105-min non-linear gradient of 1.6–32% acetonitrile with 0.1% formic acid at a nanoflow rate of 225 nl/min. The eluted peptides were sprayed directly by electrospray ionization into a Q Exactive Plus Orbitrap mass spectrometer (Thermo Scientific). […]

Row | Molecule | Immunoprecipitation enrichment MUT vs WT, log2 FC
1 | B1 | 1.275
2 | B2 | 1.198
3 | B3 | 1.381
4 | B4 | 1.179
5 | B5 | 1.317
